Measured values reported in IntAct's records for PubMed 19118202.

B1: P-selectin (Homo sapiens), P16109 (parent)
chain: MANCQIAILYQRFQRVVFGISQLLCFSALISELTNQKEVAAWTYHYSTKAYSWNISRKYCQNRYTDLVAIQNKNEIDYLNKVLPYYSSYYWIGIRKNNKTWTWVGTKKALTNEAENWADNEPNNKRNNEDCVEIYIKSPSAPGKWNDEHCLKKKHALCYTASCQDMSCSKQGECLETIGNYTCSCYPGFYGPECEYVRECGELELPQHVLMNCSHPLGNFSFNSQCSFHCTDGYQVNGPSKLECLASGIWTNKPPQCLAAQCPPLKIPERGNMTCLHSAKAFQHQSSCSFSCEEGFALVGPEVVQCTASGVWTAPAPVCKAVQCQHLEAPSEGTMDCVHPLTAFAYGSSCKFECQPGYRVRGLDMLRCIDSGHWSAPLPTCEAISCEPLESPVHGSMDCSPSLRAFQYDTNCSFRCAEGFMLRGADIVRCDNLGQWTAPAPVCQALQCQDLPVPNEARVNCSHPFGAFRYQSVCSFTCNEGLLLVGASVLQCLATGNWNSVPPECQAIPCTPLLSPQNGTMTCVQPLGSSSYKSTCQFICDEGYSLSGPERLDCTRSGRWTDSPPMCEAIKCPELFAPEQGSLDCSDTRGEFNVGSTCHFSCDNGFKLEGPNNVECTTSGRWSATPPTCKGIASLPTPGVQCPALTTPGQGTMYCRHHPGTFGFNTTCYFGCNAGFTLIGDSTLSCRPSGQWTAVTPACRAVKCSELHVNKPIAMNCSNLWGNFSYGSICSFHCLEGQLLNGSAQTACQENGHWSTTVPTCQAGPLTIQEALTYFGGAVASTIGLIMGGTLLALLRKRFRQKDDGKCPLNPHSHLGTYGVFTNAAFDPSP
partner: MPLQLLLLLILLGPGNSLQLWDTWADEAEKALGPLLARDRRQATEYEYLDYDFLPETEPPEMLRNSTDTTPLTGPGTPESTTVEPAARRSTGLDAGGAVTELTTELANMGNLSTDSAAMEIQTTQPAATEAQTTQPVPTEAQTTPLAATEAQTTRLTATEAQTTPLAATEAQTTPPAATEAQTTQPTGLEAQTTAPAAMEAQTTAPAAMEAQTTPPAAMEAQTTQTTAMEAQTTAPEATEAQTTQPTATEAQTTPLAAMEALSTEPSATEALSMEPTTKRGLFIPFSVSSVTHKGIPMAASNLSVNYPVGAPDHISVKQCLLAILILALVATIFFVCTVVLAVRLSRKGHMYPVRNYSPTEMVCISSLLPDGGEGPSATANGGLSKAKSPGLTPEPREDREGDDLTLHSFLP

Variants of: B1
Details: with selpl_human SELPLG

Variant | effect of a mutation on the interaction
A69H | increasing interaction
